From patent US20070196354A1, “Method of treating diabetes by inhibiting degradation of at least one of crebl1, atf6, and hnf-4 alpha by htra” (priority 2003, published 2007)

Biological target: T1, HNF-4α (Homo sapiens, UniProt P41235)
T1 construct: expressed in transfected cells; host or cells: HEK293T
T1 sequence (P41235 10-474): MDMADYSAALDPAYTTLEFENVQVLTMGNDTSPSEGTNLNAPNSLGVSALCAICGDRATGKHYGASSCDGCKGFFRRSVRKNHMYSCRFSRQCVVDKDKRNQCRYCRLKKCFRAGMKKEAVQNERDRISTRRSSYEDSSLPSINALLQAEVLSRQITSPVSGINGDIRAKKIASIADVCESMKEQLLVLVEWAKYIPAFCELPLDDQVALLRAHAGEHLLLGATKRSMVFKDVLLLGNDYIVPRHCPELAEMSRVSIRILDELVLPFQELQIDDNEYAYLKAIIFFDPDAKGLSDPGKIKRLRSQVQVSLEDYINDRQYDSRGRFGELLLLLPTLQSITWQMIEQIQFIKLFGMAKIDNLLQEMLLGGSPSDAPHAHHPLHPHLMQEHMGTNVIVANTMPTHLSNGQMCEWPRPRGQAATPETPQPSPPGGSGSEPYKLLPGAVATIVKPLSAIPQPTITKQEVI
Test: In vitro protease assay, HNF-4α captured on resin
Assay type: biochemical
Conditions: 50 μg/ml, 37° C., overnight (O/N), anti-FLAG detection
Protocol: HNF-4α captured on the resin by immunoprecipitation was used in the experiments in order to eliminate the influence of proteinaceous impurities contained in the HNF-4α soluble fraction. More specifically, 300 μl of HNF-4α soluble fraction was dispensed to six tubes (Nos. 1 to 6), followed by adding 20 μl of protein G sepharose 4 FF (Amersham) of 50% slurry that had been subjected to blocking with BSA, to each of tubes, subjected to overturned mixing at 4° C. for 1 hour, and then subjected to centrifugation (10,000 rpm, 10 sec, 4° C.) to collect the supernatant, and thus the pre-treatment (pre-clean) was performed. The resultant supernatant was mixed with 0.4 μl (2 μg) of anti-FLAG antibody (Sigma) by overturned mixing at 4° C. for 3 hours, followed by adding 20 μl of protein G sepharose 4 FF that had been subjected to blocking with BSA, and then subjected to overturned mixing at 4° C. overnight. Thus, HNF-4α was captured on protein G sepharose 4 FF. […]

B1: mature HtrA2: SEQ ID NO: 4; mature protein generated from HtrA2 precursor by cleavage of N-terminal 133 residues, has protease activity (protein, listed as Homo sapiens)
chain: MAVPSPPPASPRSQYNFIADVVEKTAPAVVYIEILDRHPFLGREVPISNGSGFVVAADGLIVTNAHVVADRRRVRVRLLSGDTYEAVVTAVDPVADIATLRIQTKEPLPTLPLGRSADVRQGEFVVAMGSPFALQNTITSGIVSSAQRPARDLGLPQTNVEYIQTDAAIDFGNSGGPLVNLDGEVIGVNTMKVTAGISFAIPSDRLREFLHRGEKKNSSSGISGSQRRYIGVMMLTLSPSILAELQLREPSFPDVQHGVLIHKVILGSPAHRAGLRPGDVILAIGEQMVQNAEDVYEAVRTQSQLAVQIRRGRETLTLYVTPEVTE
modifications: mature HtrA2
degradation of HNF-4α (band by western blotting): the band of HNF-4α was reduced significantly
